First the molecules themselves.
B1: Hairpin Ribozyme (parent)
chain: GUCCUCUUUCACGUGCGCGUGAAAGAGAGAAGUGAACCAGAGAAACACACGUUGUGGUAUAUUACCUGGUA

Variants of B1 are the subject of this series. The series can be described thus: self-cleavage, relative activity (ratio to wild type); higher = more cleavage; co-transcriptional.
Turning to U55G U67G, the self-cleavage came out at 0.233.
Then U5A A11C, with 0.281.
In the case of C10G A23C it was 0.416; in that of G25U C37U, 0.427; in that of G13C G27C, 0.161.
Then C16A A24U, with 0.632; and C4U U52G, with 0.209.
In the case of U9A C48U, the self-cleavage was 0.134.
In the case of U9A C48G it was 0.127; in that of A24G U62A, 0.316.
Then G15A A49G, with 0.527; and C16U A24U, with 1.02; and C3U C12U, with 0.345.
Then C12U G56C, with 0.137; and C37A G40U, with 0.129.
Take C10A A11C: the self-cleavage is 0.624.
In the case of A36G A44U it was 0.0711.
In the case of A22G G29U it was 0.0873; in that of U62C C65A, 0.212; in that of C6A G17A, 0.663.
In the case of U20A A41C it was 1.28.
For the variant C48G U70C, the self-cleavage was 0.302.
As to A49U G68U, the self-cleavage was 0.128.
Then G29A A71G, with 0.112; and A31U C66A, with 0.3.
In the case of C12G C46A it was 0.191.
In the case of U55C A59G, the self-cleavage came out at 0.0716.
Then U8G A35U, with 0.673.
Then G19U U58G, with 0.672; and G15C G25A, with 0.607.
In the case of A43C A64U it was 0.198.
On to U5G G17C, for which the self-cleavage was determined as 0.35.
U2C G15C: the self-cleavage amounted to 0.243.
Regarding A49G G51C, the self-cleavage came to 0.495.
In the case of C6U U60A it was 0.732; in that of A49G C65U, 0.107; in that of G19C A26U, 0.719.
In the case of G13C C38A it was 0.2; in that of A41C C50A, 0.634.
In the case of G15A A23C it was 0.877; in that of C18A A49G, 0.54.
Regarding A22C C50U, the self-cleavage is 0.405.
Then U9G A30G, with 0.0174.
Then A22G A35G, with 0.905; and A22G A35U, with 0.715.
In the case of A43G C46G it was 0.26; in that of U60A C66U, 0.274.
As for U20G C48A, the self-cleavage was found to be 0.203.
Then A23U A64C, with 0.221; and U60G, with 0.615.
On to A31G U67C, for which the self-cleavage is 0.118.
Then U33A A45U, with 0.2; and U33G G69A, with 0.0603.
Consider A23G C38G, for which the self-cleavage came out at 0.186.
For A22C A64G, the self-cleavage is 0.467.
In the case of U8G A39C it was 0.406; in that of C16G G51C, 0.564.
Then U2A U60C, with 0.542; and C6G A23U, with 0.344.
Then U9A U58C, with 0.72; and A44C G57U, with 0.0814; and U52C G69A, with 0.416.
Turning to A23G A39U, the self-cleavage was determined as 0.252.
In the case of U14C A36G it was 1.44; in that of C6G A59U, 0.192; in that of C10U A28G, 0.822.
As for C10A C38U, the self-cleavage amounted to 0.425.
Take G34U U60C: the self-cleavage was determined as 1.42.
With C48U G57U, the self-cleavage came out at 0.204.
In the case of A45C C48A it was 0.0612; in that of A36G A64U, 0.138.
Then U9A G29C, with 0.154.
In the case of A43C C46U it was 0.194; in that of U7G G69U, 0.166; in that of A24C G29A, 0.0206.
Take U14A A36U: the self-cleavage was found to be 0.582.
With A24U U60A, the self-cleavage turned out to be 0.57.
For the variant C4U G69U, the self-cleavage was found to be 0.177.
As for C18U U70A, the self-cleavage came out at 0.899.
Consider G21A G42A, for which the self-cleavage worked out at 0.218.
For U33A A61U, the self-cleavage was 0.167.
In the case of C10A G32C it was 0.0945; in that of G42U G54C, 0.122; in that of U33A A44U, 0.141.
In the case of C10U C18U it was 0.95; in that of C6A A11C, 0.415.
In the case of G42U A49G, the self-cleavage was 0.134.
In the case of A28G C50G it was 0.467.
In the case of G34A A47C it was 0.451; in that of U2G C37A, 0.131.
In the case of U2G G21A it was 0.265.
As to C16A G42A, the self-cleavage is 0.366.
In the case of A41U G69U it was 0.348.
Then A30C A47U, with 0.105; and U14C A64U, with 0.199; and G21A U53A, with 0.824.
Then C46G A47G, with 0.136; and C38G A39U, with 0.209; and A22C U60A, with 0.664.
Regarding A31G A36C, the self-cleavage amounted to 0.363.
In the case of A24U U63A it was 0.237; in that of U55C A61U, 0.281; in that of G29C U62A, 0.13.
As to A44C U58A, the self-cleavage was determined as 0.0929.
C3G G15A: the self-cleavage worked out at 0.281.
In the case of U14G G15C it was 0.864; in that of U8G G69C, 0.323.
In the case of U8A C50G it was 0.21.
Then G15C A61G, with 0.173.
For the variant C4U A49C, the self-cleavage worked out at 0.259.
Then U5C A41U, with 1.06; and G19U U53C, with 0.952; and U5A A36G, with 0.427.
In the case of G29A U62G it was 0.21; in that of G13U C18G, 0.722.
In the case of G1C U20A it was 0.175.
Turning to A28C C66G, the self-cleavage is 0.197.
As to C10U C38U, the self-cleavage was 0.387.
In the case of C6G A64G it was 0.365; in that of G1U G42U, 0.162.
Then A22G A24U, with 1.08.
In the case of U14G A24G it was 0.747; in that of U8G A45U, 0.118.
Take A23U A59U: the self-cleavage amounted to 0.189.
Then A31G A45U, with 0.236; and C4G G56U, with 0.148.
In the case of A41U G56U it was 0.125.
Then G40U U53A, with 0.121; and A11C G19A, with 0.741; and A30G G57U, with 0.0464.
For the variant G29A A61C, the self-cleavage worked out at 0.163.
In the case of G19U G21U it was 0.784; in that of G34A A61G, 0.091.
In the case of C16G U67A it was 0.097; in that of C10G A39G, 0.267; in that of U52C G54C, 0.0624.
Then G19A C50G, with 0.247; and A24C U53A, with 1.08.
With A24U A59C, the self-cleavage was determined as 0.139.
Then U2G G51U, with 0.389; and A26U A47C, with 0.151; and U5G A39G, with 0.0943.
In the case of U20G G51U it was 0.916.
Then U2A U14G, with 0.235; and U33A G51A, with 0.177.
As to G13U C37A, the self-cleavage stood at 0.249.
Then U33C C50A, with 0.114.
As to U9C G13A, the self-cleavage is 0.531.
In the case of A30G U60C it was 0.252.
In the case of C4A U67G it was 0.144; in that of G13A G54U, 0.42.
Regarding G13C A23G, the self-cleavage amounted to 0.373.
Then C10G A47C, with 0.307; and U2A C48U, with 0.104; and C3U A35G, with 0.717.
Take U14C A26U: the self-cleavage turned out to be 0.418.
In the case of C4U A41G it was 0.299; in that of C37G G69U, 0.644; in that of C18U A49G, 0.567.
In the case of U14G G27U it was 0.144; in that of A11G U67C, 0.214.
In the case of A39C A43U it was 0.123.
As to G15C G19A, the self-cleavage came out at 0.913.
In the case of U33G A64U it was 0.144.
In the case of A45U U58C it was 0.0664.
As to A36C A47C, the self-cleavage stood at 0.262.
Take C3G A36U: the self-cleavage is 0.174.

These data come from the RNAGym collection of RNA variant scans (doi:10.7554/elife.80360).
